Results from patent US20240355418A1, “MULTIPLEX, TEMPORALLY RESOLVED MOLECULAR SIGNAL RECORDER AND RELATED METHODS” (University of Washington, priority 2021, published 2024).

B1: 12×TAPE-1: 12 repeats of the 14-bp TAPE-1 monomer, SEQ ID NO: 118 (nucleic acid)
DNA: CACCNNNNNNNNGGATGATGGTGAGCACGTGATGGTGAGCACGTGATGGTGAGCACGTGATGGTGAGCACGTGATGGTGAGCACGTGATGGTGAGCACGTGATGGTGAGCACGTGATGGTGAGCACGTGATGGTGAGCACGTGATGGTGAGCACGTGATGGTGAGCACGTGATGGTGAGCACGTGATGGTGAGCGCTTTAAGGC

How the values were obtained:
[1] = test system: HEK293T and monoclonal lineage tracing cell line (iPE2(+) LT(+)); experiment: Cell doubling time with or without Doxycycline; assay type: cell-based
Text: (A). Cell doubling times measured for HEK293T and the monoclonal lineage tracing cell line (iPE2(+) LT(+)), with or without Doxycycline (Dox). […] P values were obtained using the two-tailed Student's t-test with Bonferroni correction: only *P<0.05 are shown. The center and error bars are mean and standard deviations, respectively, from n=3 independent experiments.

[2] = test system: PE2(+) 3N-TAPE-1-pegRNA(+) HEK293T; experiment: Editing and recovery of 12× and 20×TAPE-1 arrays, 40 days, PacBio sequencing; assay type: cell-based; conditions: 40 days culture
Text: To evaluate the extent to which such issues might be limiting in practice, a synthetic minisatellite in the form of 12 or 20 repeats of the 14-bp TAPE-1 monomer was generated. 12×TAPE-1 was synthesised as single-stranded DNA (IDT) and 20×TAPE-1 as a plasmid (GenScript). PCR amplicons of each array were cloned into the piggyBAC vector via Gibson assembly. Of note, cloned constructs were used “as is”, even though it is possible that some degree of variation in repeat number was already present (FIG. 11A-11B). […] PCR amplification of TAPE-1 was followed by standard library construction and sequencing on the Pacific Bioscience Sequel platform to obtain circular consensus sequencing (CCS) reads. […]
CCS reads were grouped within each replicate based on a degenerate 8-bp barcode (TargetBC), as these presumably derived from the same integration. On average, each TargetBC group had 3.1±3.4 and 3.8±5.7 reads for ˜ 12×TAPE-1 and ˜20×TAPE-1, respectively.
For long-read amplicon sequencing library preparation, a two-step PCR protocol was used: the first PCR reaction (KAPA Robust polymerase) included 1.5 uL of cell lysate, 0.04 to 0.4 uM of forward and reverse primers in a final reaction volume of 25 μL. […] After the first PCR step, products were assessed on 6% TBE-gel and purified using 0.6×AMPure (Beckman Coulter) and added to the second PCR reaction that appended PacBio sample indexes. […]

Molecule	Effect on cell doubling time [1]	Edits per array [2]	Repeats of TAPE-1 monomers recovered (average) [2]
C[C@H]1c2cccc(O)c2C(=O)C2=C(O)[C@]3(O)C(=O)C(C(N)=O)=C(O)[C@@H](N(C)C)[C@@H]3[C@@H](O)[C@@H]21 [Dox, Doxycycline hyclate]	lengthened the cell doubling time	–	–
B1	–	4.5±1.3 edits	8.4±3.3 repeats
